Data on two molecules can be found in patent US20250333518A1 (ROCK BIOMEDICAL, published 2025).

This assay concerns the target T1, CD20 (UniProt P11836 1-297, limits assumed).
T1 construct: also called the antigen (of Rituximab and Obinutuzumab)
T1 sequence (looked up): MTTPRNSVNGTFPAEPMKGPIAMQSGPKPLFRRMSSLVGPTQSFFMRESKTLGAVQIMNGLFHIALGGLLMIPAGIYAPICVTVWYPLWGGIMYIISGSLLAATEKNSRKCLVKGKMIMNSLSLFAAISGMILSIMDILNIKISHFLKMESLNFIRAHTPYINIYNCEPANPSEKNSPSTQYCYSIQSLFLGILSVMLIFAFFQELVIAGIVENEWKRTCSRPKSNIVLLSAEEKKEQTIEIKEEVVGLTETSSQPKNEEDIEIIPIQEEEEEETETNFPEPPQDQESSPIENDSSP
Briefly: ELISA, target binding.

B1: Rituximab (MabThera® or Rituxan®) population produced by the SAII A3 Fut8 KO cells according to the present disclosure (antibody, human IgG1, kappa, V domains shown)
VH: QVQLQQPGAELVKPGASVKMSCKASGYTFTSYNMHWVKQTPGRGLEWIGAIYPGNGDTSYNQKFKGKATLTADKSSSTAYMQLSSLTSEDSAVYYCARSTYYGGDWYFNVWGAGTTVTVSA
VL: QIVLSQSPAILSASPGEKVTMTCRASSSVSYIHWFQQKPGSSPKPWIYATSNLASGVPVRFSGSGSGTSYSLTISRVEAEDAATYYCQQWTSNPPTFGGGTKLEIKR
modifications: N-glycan: sialylated complex type glycans around 83.4% of the glycans, no core fucose
notes: Differs from the commercial product in the glycan profile only; also called Biobetter Rituximab; glycoengineered MabThera®
B1 displayed an EC50 of 0.77 nM.

B2: Rituximab, commercially available product (MabThera®) (antibody, human IgG1, kappa, V domains shown)
VH: QVQLQQPGAELVKPGASVKMSCKASGYTFTSYNMHWVKQTPGRGLEWIGAIYPGNGDTSYNQKFKGKATLTADKSSSTAYMQLSSLTSEDSAVYYCARSTYYGGDWYFNVWGAGTTVTVSA
VL: QIVLSQSPAILSASPGEKVTMTCRASSSVSYIHWFQQKPGSSPKPWIYATSNLASGVPVRFSGSGSGTSYSLTISRVEAEDAATYYCQQWTSNPPTFGGGTKLEIKR
notes: Bought product; also called Rituxan
In the case of B2, the EC50 was 0.544 nM.

In general, EC50 refers to the concentration giving half of the maximal effect. Higher therefore signals lower potency in that assay.
